Assay [1] concerns the target T1, human VEGFR2 extracellular domain (human, UniProt P35968 20-764).
T1 construct: also called hVEGFR2-ECD; human VEGFR2-ECD
The experiment in a line: Biacore SPR, 25 C, compound captured on Protein A, VEGFR2-ECD as analyte.

A further assay addresses T2, human Ang2 (human, UniProt O15123 19-496).
T2 construct: also called hAng2; human angiopoietin-2
T2 sequence: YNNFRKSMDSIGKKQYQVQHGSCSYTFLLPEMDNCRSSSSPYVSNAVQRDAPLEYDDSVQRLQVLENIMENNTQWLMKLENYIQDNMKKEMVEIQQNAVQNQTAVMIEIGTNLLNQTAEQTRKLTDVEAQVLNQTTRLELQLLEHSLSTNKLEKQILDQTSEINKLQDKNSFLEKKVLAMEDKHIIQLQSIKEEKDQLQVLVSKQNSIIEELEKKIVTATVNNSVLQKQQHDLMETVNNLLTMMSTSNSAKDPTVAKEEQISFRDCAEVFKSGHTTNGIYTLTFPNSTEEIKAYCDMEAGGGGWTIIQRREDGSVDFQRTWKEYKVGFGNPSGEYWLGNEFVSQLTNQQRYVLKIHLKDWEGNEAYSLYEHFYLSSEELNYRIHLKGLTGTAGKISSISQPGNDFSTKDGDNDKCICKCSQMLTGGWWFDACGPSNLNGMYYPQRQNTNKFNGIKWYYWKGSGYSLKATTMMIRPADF
The experiment in a line: Biacore SPR, 25 C, compound captured on Protein A, Ang2 as analyte.

Bounds are passed on as bounds.

T1 sequence (P35968 20-764): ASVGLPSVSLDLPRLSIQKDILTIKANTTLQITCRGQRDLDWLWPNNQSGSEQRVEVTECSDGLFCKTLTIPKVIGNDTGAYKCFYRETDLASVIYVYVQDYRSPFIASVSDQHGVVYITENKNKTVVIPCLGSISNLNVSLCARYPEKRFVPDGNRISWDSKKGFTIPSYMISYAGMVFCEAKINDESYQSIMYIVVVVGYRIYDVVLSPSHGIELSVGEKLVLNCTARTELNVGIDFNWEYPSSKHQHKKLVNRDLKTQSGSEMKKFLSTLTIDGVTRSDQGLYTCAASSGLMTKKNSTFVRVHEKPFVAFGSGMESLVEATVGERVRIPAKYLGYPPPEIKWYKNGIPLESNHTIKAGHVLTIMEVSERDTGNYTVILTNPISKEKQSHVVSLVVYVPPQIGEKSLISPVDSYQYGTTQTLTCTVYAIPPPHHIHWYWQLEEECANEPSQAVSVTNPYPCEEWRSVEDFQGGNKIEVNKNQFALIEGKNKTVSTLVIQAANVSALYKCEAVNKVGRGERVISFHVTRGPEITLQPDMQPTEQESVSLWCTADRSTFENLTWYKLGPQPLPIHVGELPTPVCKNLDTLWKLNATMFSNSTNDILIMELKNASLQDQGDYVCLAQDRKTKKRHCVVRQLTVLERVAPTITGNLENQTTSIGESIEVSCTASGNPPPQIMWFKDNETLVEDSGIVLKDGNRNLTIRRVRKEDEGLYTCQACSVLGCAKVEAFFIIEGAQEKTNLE

B1: Compound E (bispecific antibody, human IgG4 S228P, kappa, F234A L235A)
heavy: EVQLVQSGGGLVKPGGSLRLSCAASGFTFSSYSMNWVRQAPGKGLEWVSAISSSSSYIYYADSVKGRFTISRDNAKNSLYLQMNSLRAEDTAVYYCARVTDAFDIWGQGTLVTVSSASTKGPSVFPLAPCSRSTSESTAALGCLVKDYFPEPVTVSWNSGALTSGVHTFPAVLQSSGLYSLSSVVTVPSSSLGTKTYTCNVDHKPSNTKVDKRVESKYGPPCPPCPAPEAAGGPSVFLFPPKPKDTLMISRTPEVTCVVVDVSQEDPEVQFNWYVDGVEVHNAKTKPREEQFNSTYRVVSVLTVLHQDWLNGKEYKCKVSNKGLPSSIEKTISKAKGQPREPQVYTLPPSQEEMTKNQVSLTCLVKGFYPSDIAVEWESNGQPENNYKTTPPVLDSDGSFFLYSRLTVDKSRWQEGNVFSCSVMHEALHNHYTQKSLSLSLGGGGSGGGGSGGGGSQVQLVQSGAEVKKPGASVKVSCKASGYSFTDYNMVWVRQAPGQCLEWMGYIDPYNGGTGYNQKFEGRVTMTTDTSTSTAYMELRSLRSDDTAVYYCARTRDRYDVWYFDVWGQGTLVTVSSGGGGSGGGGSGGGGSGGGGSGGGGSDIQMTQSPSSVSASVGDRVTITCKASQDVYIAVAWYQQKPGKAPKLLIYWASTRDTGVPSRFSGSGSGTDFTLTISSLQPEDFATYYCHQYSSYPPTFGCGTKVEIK
light: DIQMTQSPSSVSASVGDRVTITCRASQGIDNWLTWYQQKPGKAPKLLIVEASSLQSGVPSRFSGSGSGTDFTLTISSLQPEDFATYYCQQAKAFPPTFGGGTKVDIKRTVAAPSVFIFPPSDEQLKSGTASVVCLLNNFYPREAKVQWKVDNALQSGNSQESVTEQDSKDSTYSLSSTLTLSKADYEKHKVYACEVTHQGLSSPVTKSFNRGEC
In assay [1], B1 gave a dissociation constant Kd of 1.11 nM, an off-rate (koff) of 3.5e-05 s⁻¹ and a kon of 32000 M⁻¹ s⁻¹. In the assay with human Ang2, this molecule returned a Kd of 0.407 nM, a dissociation rate constant (koff) of 9.7e-05 s⁻¹ and a kon of 239000 M⁻¹ s⁻¹.

B2: Compound D (bispecific antibody, human IgG4 S228P, kappa, F234A L235A)
heavy: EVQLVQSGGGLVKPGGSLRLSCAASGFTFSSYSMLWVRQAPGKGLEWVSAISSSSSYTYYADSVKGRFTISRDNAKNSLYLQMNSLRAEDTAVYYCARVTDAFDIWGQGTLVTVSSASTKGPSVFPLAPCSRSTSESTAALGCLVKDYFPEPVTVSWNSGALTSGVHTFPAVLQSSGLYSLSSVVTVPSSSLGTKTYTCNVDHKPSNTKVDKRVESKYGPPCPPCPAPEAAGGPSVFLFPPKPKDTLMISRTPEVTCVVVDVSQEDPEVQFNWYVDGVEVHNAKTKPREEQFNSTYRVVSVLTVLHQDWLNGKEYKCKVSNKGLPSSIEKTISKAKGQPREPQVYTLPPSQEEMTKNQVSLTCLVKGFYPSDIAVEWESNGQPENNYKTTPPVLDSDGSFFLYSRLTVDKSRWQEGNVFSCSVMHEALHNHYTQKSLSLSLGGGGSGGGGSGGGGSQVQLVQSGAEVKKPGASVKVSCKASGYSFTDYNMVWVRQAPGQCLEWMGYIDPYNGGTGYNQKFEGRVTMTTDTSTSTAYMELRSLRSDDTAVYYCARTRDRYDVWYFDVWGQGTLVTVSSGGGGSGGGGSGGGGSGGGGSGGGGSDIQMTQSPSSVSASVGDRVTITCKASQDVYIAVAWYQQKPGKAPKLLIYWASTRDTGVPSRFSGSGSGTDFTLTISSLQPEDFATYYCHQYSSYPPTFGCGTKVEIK
light: DIQMTQSPSSVSASVGDRVTITCRASQGIDNWLTWYQQKPGKAPKLLIVEASSLQSGVPSRFSGSGSGTDFTLTISSLQPEDFATYYCQQAKRFPPTFGGGTKVDIKRTVAAPSVFIFPPSDEQLKSGTASVVCLLNNFYPREAKVQWKVDNALQSGNSQESVTEQDSKDSTYSLSSTLTLSKADYEKHKVYACEVTHQGLSSPVTKSFNRGEC
In assay [1], B2 came in with a Kd of 0.86 nM, a dissociation rate constant (koff) of 2.9e-05 s⁻¹ and a kon of 34000 M⁻¹ s⁻¹. Also, in the assay with human Ang2, the Kd came to 0.489 nM, the koff came to 8.6e-05 s⁻¹ and the kon was found to be 175000 M⁻¹ s⁻¹.

B3: Compound C (bispecific antibody, human IgG4 S228P, kappa, F234A L235A)
heavy: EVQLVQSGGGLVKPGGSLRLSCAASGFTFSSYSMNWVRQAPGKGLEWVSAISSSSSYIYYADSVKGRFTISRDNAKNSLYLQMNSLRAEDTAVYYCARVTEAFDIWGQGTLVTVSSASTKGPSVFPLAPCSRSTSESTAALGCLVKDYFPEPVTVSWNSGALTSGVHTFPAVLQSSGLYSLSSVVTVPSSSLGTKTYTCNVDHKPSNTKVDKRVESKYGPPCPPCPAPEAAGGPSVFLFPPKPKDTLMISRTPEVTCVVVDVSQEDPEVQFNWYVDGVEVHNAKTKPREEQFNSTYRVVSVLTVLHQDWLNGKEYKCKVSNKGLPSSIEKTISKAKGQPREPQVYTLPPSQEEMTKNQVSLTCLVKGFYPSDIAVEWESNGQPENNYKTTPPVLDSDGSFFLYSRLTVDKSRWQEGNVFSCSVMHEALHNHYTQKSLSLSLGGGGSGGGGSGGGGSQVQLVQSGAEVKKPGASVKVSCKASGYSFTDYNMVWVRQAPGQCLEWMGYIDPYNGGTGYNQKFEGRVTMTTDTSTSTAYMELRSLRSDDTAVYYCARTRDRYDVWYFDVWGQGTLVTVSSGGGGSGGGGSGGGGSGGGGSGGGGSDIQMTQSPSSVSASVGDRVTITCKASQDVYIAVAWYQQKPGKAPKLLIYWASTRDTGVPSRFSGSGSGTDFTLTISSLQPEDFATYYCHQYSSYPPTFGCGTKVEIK
light: DIQMTQSPSSVSASVGDRVTITCRASRGIDNWLTWYQQKPGKAPKLLIYEASSLQSGVPSRFSGSGSGTDFTLTISSLQPEDFATYYCQQAKAFPPTFGGGTKVDIKRTVAAPSVFIFPPSDEQLKSGTASVVCLLNNFYPREAKVQWKVDNALQSGNSQESVTEQDSKDSTYSLSSTLTLSKADYEKHKVYACEVTHQGLSSPVTKSFNRGEC
As to B3, in assay [1], the dissociation constant (Kd) stood at 0.528 nM, the koff was 2e-05 s⁻¹ and the kon turned out to be 38000 M⁻¹ s⁻¹. In the assay with human Ang2, this molecule showed a Kd of 0.462 nM, an off-rate (koff) of 0.000105 s⁻¹ and a kon of 226000 M⁻¹ s⁻¹.

B4: Compound A (bispecific antibody, human IgG1, kappa)
heavy: not shown
light: DIQMTQSPSSVSASIGDRVTITCRASQGIDNWLGWYQQKPGKAPKLLIYDASNLDTGVPSRFSGSGSGTYFTLTISSLQAEDFAVYFCQQAKAFPPTFGGGTKVDIKRTVAAPSVFIFPPSDEQLKSGTASVVCLLNNFYPREAKVQWKVDNALQSGNSQESVTEQDSKDSTYSLSSTLTLSKADYEKHKVYACEVTHQGLSSPVTKSFNRGEC
Take B4: in assay [1], the Kd stood at 0.711 nM, the koff came out at 4.8e-05 s⁻¹ and the kon worked out at 68000 M⁻¹ s⁻¹. In the assay with human Ang2, the dissociation constant Kd was less than 0.1 nM, the dissociation rate constant (koff) is less than 1e-05 s⁻¹ and the kon worked out at 183000 M⁻¹ s⁻¹.

B5: Compound B (bispecific antibody, human IgG4 S228P, kappa, F234A L235A)
heavy: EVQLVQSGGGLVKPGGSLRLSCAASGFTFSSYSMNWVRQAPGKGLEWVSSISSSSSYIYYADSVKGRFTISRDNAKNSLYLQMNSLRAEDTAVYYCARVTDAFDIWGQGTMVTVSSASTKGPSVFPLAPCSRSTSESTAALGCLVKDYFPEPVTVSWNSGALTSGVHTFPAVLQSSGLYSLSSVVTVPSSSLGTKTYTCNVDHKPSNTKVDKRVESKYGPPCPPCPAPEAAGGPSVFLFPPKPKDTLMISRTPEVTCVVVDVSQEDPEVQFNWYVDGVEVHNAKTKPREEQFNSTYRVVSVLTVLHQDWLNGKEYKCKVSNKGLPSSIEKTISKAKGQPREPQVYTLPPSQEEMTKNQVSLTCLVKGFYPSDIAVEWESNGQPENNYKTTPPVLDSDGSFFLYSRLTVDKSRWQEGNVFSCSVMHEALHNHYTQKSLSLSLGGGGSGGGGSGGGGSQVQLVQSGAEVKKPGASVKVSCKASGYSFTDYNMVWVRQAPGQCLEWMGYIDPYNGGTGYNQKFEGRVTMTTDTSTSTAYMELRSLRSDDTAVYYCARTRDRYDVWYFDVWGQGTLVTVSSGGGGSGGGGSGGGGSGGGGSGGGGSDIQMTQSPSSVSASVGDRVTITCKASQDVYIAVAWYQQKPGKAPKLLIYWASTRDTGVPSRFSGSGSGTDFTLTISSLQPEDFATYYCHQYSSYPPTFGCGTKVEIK
light: DIQMTQSPSSVSASIGDRVTITCRASQGIDNWLGWYQQKPGKAPKLLIYDASNLDTGVPSRFSGSGSGTYFTLTISSLQAEDFAVYFCQQAKAFPPTFGGGTKVDIKRTVAAPSVFIFPPSDEQLKSGTASVVCLLNNFYPREAKVQWKVDNALQSGNSQESVTEQDSKDSTYSLSSTLTLSKADYEKHKVYACEVTHQGLSSPVTKSFNRGEC
In assay [1], B5 had a dissociation constant Kd of 0.513 nM, a koff of 4.1e-05 s⁻¹ and a kon of 81000 M⁻¹ s⁻¹. In the assay with human Ang2, this molecule came in with a Kd of less than 0.1 nM, a koff of less than 1e-05 s⁻¹ and a kon of 285000 M⁻¹ s⁻¹.

(Values after patent US20150329626A1 (Eli Lilly, published 2015).)
